Laboratory results: patent publication US20250249076A1, “Composition Comprising a Combination of Lactoferrin and a Sulphated Polysaccharide” (Reckitt Benckiser Health Limited, priority 2022, published 2025)

Assays:
[1] = system: Lactobacilli at the level of the vaginal flora; details: vaginal use; cited from earlier work
[2] = system: Lactobacillus jensenii 25258; assay: 96-well chequerboard growth assay (optical density over 48 hours), prebiotic effect; format: cell-based; details: bacteria exposed to the ingredient alone; FIG. 5
Experimental: A stock solution of 8 mg/mL bovine lactoferrin, was prepared by adding the appropriate amount of sterile MilliQ water to the weighted compound, followed by vortexing and filter-sterilizing. A stock solution of 2 mg/ml of each of the carrageenans (κ-, I-, λ-) was prepared by adding the appropriate amount of sterile MilliQ water to the weighted compound, incubated at 37° C. for 30 minutes, followed by vortexing until clear, and filter-sterilizing. […] The stock solution of lactoferrin was serially diluted in a broth-based media (appropriate for growth of the particular microorganism to be assayed) along the rows of the microtiter plate. The stock solution of carrageenan (κ-, I-, or λ-) was serially diluted in a broth-based media (appropriate for growth of the particular microorganism) along the columns of the microtiter plate. The final volume of media in each well was 0.1 mL. Each well containing lactoferrin and/or carrageenan (κ-, I-, or λ-) was inoculated with log-phase bacteria/yeast at a concentration of 5×10^5 colony forming units (CFU)/well. […] After addition of the relevant microorganism, plates were sealed with optical quality film, and incubated within the plate reader at the appropriate growth temperature for the microorganism being assayed. The optical density (OD) was recorded every 15 minutes for a period of 48 hours to evaluate the microorganism growth and biomass formation.

B1: lactoferrin: iron-binding cationic glycoprotein belonging to the family of transferrins; bovine lactoferrin used in the Examples (protein, UniProt P24627 20-708, looked up)
Lactotransferrin: APRKNVRWCTISQPEWFKCRRWQWRMKKLGAPSITCVRRAFALECIRAIAEKKADAVTLDGGMVFEAGRDPYKLRPVAAEIYGTKESPQTHYYAVAVVKKGSNFQLDQLQGRKSCHTGLGRSAGWIIPMGILRPYLSWTESLEPLQGAVAKFFSASCVPCIDRQAYPNLCQLCKGEGENQCACSSREPYFGYSGAFKCLQDGAGDVAFVKETTVFENLPEKADRDQYELLCLNNSRAPVDAFKECHLAQVPSHAVVARSVDGKEDLIWKLLSKAQEKFGKNKSRSFQLFGSPPGQRDLLFKDSALGFLRIPSKVDSALYLGSRYLTTLKNLRETAEEVKARYTRVVWCAVGPEEQKKCQQWSQQSGQNVTCATASTTDDCIVLVLKGEADALNLDGGYIYTAGKCGLVPVLAENRKSSKHSSLDCVLRPTEGYLAVAVVKKANEGLTWNSLKDKKSCHTAVDRTAGWNIPMGLIVNQTGSCAFDEFFSQSCAPGADPKSRLCALCAGDDQGLDKCVPNSKEKYYGYTGAFRCLAEDVGDVAFVKNDTVWENTNGESTADWAKNLNREDFRLLCLDGTRKPVTEAQSCHLAVAPNHAVVSRSDRAAHVKQVLLHQQALFGKNGKNCPDKFCLFKSETKNLLFNDNTECLAKLGGRPTYEEYLGTEYVTAIANLKKCSTSPLLEACAFLTR
[1]
  presence of Lactobacilli at the level of the vaginal flora: able to increase the presence of Lactobacilli
[2]
  viability / phase of the bacterial growth cycle of L. jensenii 25258: enters the death phase
